The target in one data set is trypsin (UniProt P00760). The data set can be described thus: SPR. Conditions: embedded in imprinted polymer nanoparticle, SPR: PBST (10 mM phosphate buffered saline, pH 7.4, 0.01% Tween 20), 25 °C, nanoparticles immobilized on carboxymethyl dextran Au chips, protein 4-64 nM, n = 3.
The target of another data set is lysozyme (UniProt P00698 19-147). Put plainly: SPR; lysozyme-imprinted polymer hybrid; SPR: PBST (10 mM phosphate buffered saline, pH 7.4, 0.01% Tween 20), 25 °C; nanoparticles immobilized on carboxymethyl dextran Au chips, protein 4-64 nM; n = 3. As to conditions: protein: commercial.

From article PMC11905881, “Incorporation of polymerizable linkers into aptamers for high-affinity nanoscale molecularly imprinted polymer hybrids: analysis of positional selectivity†” come the findings set out here.

Chain of trypsin (P00760 24-246): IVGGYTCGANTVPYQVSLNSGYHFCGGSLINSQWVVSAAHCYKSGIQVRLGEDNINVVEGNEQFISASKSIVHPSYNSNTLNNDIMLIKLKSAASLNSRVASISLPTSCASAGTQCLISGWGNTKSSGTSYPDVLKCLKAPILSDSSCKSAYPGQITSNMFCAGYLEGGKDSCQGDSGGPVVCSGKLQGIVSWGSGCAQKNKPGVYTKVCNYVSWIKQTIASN
Chain of lysozyme (P00698 19-147): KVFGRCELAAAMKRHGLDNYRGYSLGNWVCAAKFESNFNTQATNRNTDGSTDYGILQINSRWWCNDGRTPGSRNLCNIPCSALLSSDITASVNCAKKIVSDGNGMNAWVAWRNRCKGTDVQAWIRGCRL

Regarding “ATCTACGAATTCATCAGGGCTAAAGAGTGCAGAGTTACTTAG [AptaMIP-6 oligo]”, the Kd in the data set with trypsin (one carboxy-dT at 3' end) was 4.68 µM. In the data set with trypsin (three carboxy-dT near centre (9 bases free at 3', 14 at 5')), “ATCTACGAATTCATCAGGGCTAAAGAGTGCAGAGTTACTTAG [AptaMIP-4 oligo]” had a Kd of 9.87 µM. “ATCTACGAATTCATCAGGGCTAAAGAGTGCAGAGTTACTTAG [AptaMIP-5 oligo]” yielded a Kd with trypsin (two carboxy-dT, one at each end (positions 1 and 6 of Fig. 1)) of 8.95 µM. As to “ATCTACGAATTCATCAGGGCTAAAGAGTGCAGAGTTACTTAG [AptaMIP-8 oligo]”, the Kd in the data set with trypsin (one central carboxy-dT) is 4.17 µM. As for “ATCTACGAATTCATCAGGGCTAAAGAGTGCAGAGTTACTTAG [AptaMIP-1 oligo]”, the Kd in the data set with trypsin (six carboxy-dT (ester or amide, polymerizable), throughout) was 4.68 µM. “ATCTACGAATTCATCAGGGCTAAAGAGTGCAGAGTTACTTAG [AptaMIP-7 oligo]” returned a Kd with trypsin (one carboxy-dT at 5' end) of 4.89 µM. In turn, “ATCTACGAATTCATCAGGGCTAAAGAGTGCAGAGTTACTTAG [AptaMIP-2 oligo]” returned a Kd with trypsin (four carboxy-dT, evenly spaced, no central linker) of 2.33 µM. On to “ATCTACGAATTCATCAGGGCTAAAGAGTGCAGAGTTACTTAG [AptaMIP-3 oligo]”, for which the Kd in the data set with trypsin (three carboxy-dT, both ends and centre) stood at 9.75 µM.

B1: AptaMIP-1 oligo (ssDNA)
DNA: ATCTACGAATTCATCAGGGCTAAAGAGTGCAGAGTTACTTAG
modifications: six carboxy-dT (ester or amide, polymerizable), throughout; embedded in imprinted polymer nanoparticle
B1 returned a Kd with lysozyme of 1.28 nM.

B2: AptaMIP-3 oligo (ssDNA)
DNA: ATCTACGAATTCATCAGGGCTAAAGAGTGCAGAGTTACTTAG
modifications: three carboxy-dT, both ends and centre; embedded in imprinted polymer nanoparticle
As for B2, binding in the data set with lysozyme was put at a Kd of 1.2 nM.

B3: AptaMIP-4 oligo (ssDNA)
DNA: ATCTACGAATTCATCAGGGCTAAAGAGTGCAGAGTTACTTAG
modifications: three carboxy-dT near centre (9 bases free at 3', 14 at 5'); embedded in imprinted polymer nanoparticle
B3: binding with lysozyme was put at a Kd of 42.7 nM.
